Test results reported in the nanobody polyreactivity screen of Harvey et al. (2022).

Experiment: yeast display, Sf9 membrane polyspecificity reagent, FACS + sequencing; frameworks hold sequencing errors
Procedure, shortened: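 Using colony PCR, genes from sorted yeast display clones were amplified, then sequenced on MiSeq at 2 × 250 and filtered by CDR length. The clones had been stained with 10% biotinylated, detergent-solubilized Sf9 membrane reagent for 1 hour at 4 °C and sorted by FACS into low and high (top ~1%) gates on anti-HA and streptavidin fluorescence. Polyreactivity labels come from the gate of origin.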
With “QVQLVESGGGLVQAGGSLRLSCAASGSTFTYYAMGWYRQAPGKERELVAAINWDGGRTYYADSVKGRFTISRDNAKNTVYLQMNSLKPEDTAVYYCNAVGRYRSGFDYWGQGTQVTVSS” the “polyreactivity (PSR sort gate)” value was “high polyreactivity”. In the case of “QVQLVESGGGLVQAGGSLRLSCAASGSTFTYYAMGWYRQAPGKERELVAAITGRGGRTYYADSVKGRFTISRDNAKNSVYLQMNSLKREDTAVYYCNTVGLNYGYQYSNGYWGQGSQVTVSS”, the “polyreactivity (PSR sort gate)” value is reported as “high polyreactivity”. In the case of “QVQLVESGGGLVQAGGSLRLSCAASGSTFTYYAMGWYRQAPGKERELVAAITSSGSTNYADSVKGRFTISRDNAKNTVYLQMNSLKPEDTAVYYCNAVSKWAIYDYWGQGTQVTVSS”, the “polyreactivity (PSR sort gate)” value is reported as “high polyreactivity”. With “QVQLVESGGGLVQAGGSLRLSCAASGSTFTYYAMGWYRQAPGKERELVAAITWSGGSTYYADSVKGRFTISRDNAKNTVYLQMNSLKPEDTAVYYCNVYSIWGTYDYWGQGTQVTVSS” the “polyreactivity (PSR sort gate)” value was “low polyreactivity”. For “QVQLVESGGGLVQAGGSLRLSCAASGSTFTYYAMGWYRQAPGKERELVADIDFSGTSTYYADSVKGRFTISRDNAKNTVYLQMNSLKPEDTAVYYCATDDYNWFDYDYWGQGTQVTVSS”, the “polyreactivity (PSR sort gate)” value was “low polyreactivity”. In the case of “QVQLVESGGGLVQAGGSLRLSCAASGSTFTYYTMGWYRQAPGKERELVAAISRTTGSTYYADSVKGRFTISRDNAKNTVYLQMNSLKPEDTAVYYCAADYYTRYQYGYWGQGTQVTVSS”, the “polyreactivity (PSR sort gate)” value is reported as “low polyreactivity”. For “QVQLVESGGGLVQAGGSLRLSCAASGSTFVANGMGWYRQAPGKERELVAVISRNGGTTYYADSVKGRFTISRDNAKNTVYLQMNSLKPEDTAVYYCNAKLPVFHYFWMDYWGQGTQVTVSS”, the “polyreactivity (PSR sort gate)” value was “high polyreactivity”. In the case of “QVQLVESGGGLVQAGGSLRLSCAASGSTFVANTMGWYRQAPGKERELGAAITSDGGSTSYADSVKGRFSISRDNAKNTVYLQMNSLKPEDTAVYHCAAEYGGSSAKYGYWGQGTQVTVSS”, the “polyreactivity (PSR sort gate)” value is reported as “low polyreactivity”. In the case of “QVQLVESGGGLVQAGGSLRLSCAASGSTFVANVMGWYRQAPGKERELVATINSTSGSTYYADSVKGRFTISRDNAKNTVYLQMNSLKPEDTAVYYCNATHEGFELDYWGQGTQVTVSS”, the “polyreactivity (PSR sort gate)” value is reported as “low polyreactivity”. For “QVQLVESGGGLVQAGGSLRLSCAASGSTFVAYAMGWYRQAPGKERELVAAISASGVRTYYADSVKGRFTISRDNAKNTVYLQMNSLKPEDTAVYYCAATVFRKYRYGYWGQGTQVTVSS”, the “polyreactivity (PSR sort gate)” value was “high polyreactivity”. For “QVQLVESGGGLVQAGGSLRLSCAASGSTFVDNAMGWYRQAPGKERELVAAITNSGSTYYADSVKGRFTISRDNAKNTVYLQMNSHKPEDTAVYYCAARSRVYWARSGYWGQGTQVTVSS”, the “polyreactivity (PSR sort gate)” value was “low polyreactivity”. In the case of “QVQLVESGGGLVQAGGSLRLSCAASGSTFVDYDMGWYRQAPGKERELVAAITYSGARTYYADSVKGRFTISRDNAKNTVYLQMNSLKPEDTAVYYCNADQRTASDQLEFDYWGQGTQVTVSS”, the “polyreactivity (PSR sort gate)” value is reported as “low polyreactivity”. For “QVQLVESGGGLVQAGGSLRLSCAASGSTFVFYAMGLYRQAPGKERELVADITSGGRTSYADSVKGRFTISRDNAKNTVYLQMNSLKPEDTAVYYCAALTRWYAWYDYWGQGTQVTVSS”, the “polyreactivity (PSR sort gate)” value was “high polyreactivity”. In the case of “QVQLVESGGGLVQAGGSLRLSCAASGSTFVFYAMGWYRQAPGKERELVAINSGGSTYYADSVKGRFTISRDNAKKTVYLQMNSLKPVDTAVYYCAKDRLRVWRFDYWGQGTQVTVSS”, the “polyreactivity (PSR sort gate)” value is reported as “low polyreactivity”. In the case of “QVQLVESGGGLVQAGGSLRLSCAASGSTFVFYTMGWYRQAPGKEREFVASISGSGGSTYYADSVKGRFTISRDNAKNTVYLQMNSLKPEVSAVYYCAAGYPYYYWTPYYYWGQGTQVTLSS”, the “polyreactivity (PSR sort gate)” value is reported as “high polyreactivity”. With “QVQLVESGGGLVQAGGSLRLSCAASGSTFVGNAMGWYRQAPGKERELVAAITSGGSTNYADSVKGRFTISRDNAKNTVYLQMNSLKPEDTAVYYCAKRVSGSPPTAGSLSDSWGQGTQVTVSS” the “polyreactivity (PSR sort gate)” value was “high polyreactivity”. With “QVQLVESGGGLVQAGGSLRLSCAASGSTFVGNVMGWYRQAPGKERELVATISRSGGRTYYADSVKGRFTISRDNAKNTVYLQMNSLKPVDTAVYYCAAGFVYTTASRWGGRTRYDYWGQGTQVTVSS” the “polyreactivity (PSR sort gate)” value was “high polyreactivity”. For “QVQLVESGGGLVQAGGSLRLSCAASGSTFVGYAMGWYRQAPGKERELVAAISGGDSTYYADSVKGRFTLSRDNAQNTVYLQKNSLNPEDTALYYCAVGWTFDRRGYGYWGQGTQVTVSS”, the “polyreactivity (PSR sort gate)” value was “low polyreactivity”. With “QVQLVESGGGLVQAGGSLRLSCAASGSTFVGYAMGWYRQAPGKERELVAAITTDGGSTYYADSVKVRFTISRDNAKNTVYLQMNSLKPEDTAVYYCAADHRVYPRDDWDSPDEFGYWGQGTQVTVSS” the “polyreactivity (PSR sort gate)” value was “low polyreactivity”. With “QVQLVESGGGLVQAGGSLRLSCAASGSTFVGYAMGWYRQAPGKERELVADIDSIGGSTYYADSVKGRFTISRDNAKNTVYLQMNSLKPEDTAVYYCAARRFDTALVLYDYWGQGTQVTVSS” the “polyreactivity (PSR sort gate)” value was “low polyreactivity”. For “QVQLVESGGGLVQAGGSLRLSCAASGSTFVGYAMGWYRQAPGKERELVAGITASGTNTYYADSVKGRFTISRDNAKNTVYLQMNSLKPEDTAVYYCAAESNRRFEGEYWGQGTQVTVSS”, the “polyreactivity (PSR sort gate)” value was “high polyreactivity”. With “QVQLVESGGGLVQAGGSLRLSCAASGSTFVGYAMGWYRQAPGKERELVAHISYSGGSTYYADSVKGRFTISCDNAKNTVYLQMNSLKPEDTAVYYCAAEWSRHYYYAPRYDYWGQGTQVTVSS” the “polyreactivity (PSR sort gate)” value was “low polyreactivity”. In the case of “QVQLVESGGGLVQAGGSLRLSCAASGSTFVGYAMRGYRQAPGKERELVADIDSIGGSTYYADSVKGRFTISRDNAKNTVYLQMNSLKPEDTAVYYCAARRFDTALVLYDYWGQGTQVTVSS”, the “polyreactivity (PSR sort gate)” value is reported as “low polyreactivity”. For “QVQLVESGGGLVQAGGSLRLSCAASGSTFVHYAMGWYRQAPGKERELVAAITWSGGSTYYADSVKGRFTISRDNAKNTVYLPMNSLKPEDTAVYYCAARNFGAWRWYSYGAHLGSEYWGQGTQVTVSS”, the “polyreactivity (PSR sort gate)” value was “low polyreactivity”. In the case of “QVQLVESGGGLVQAGGSLRLSCAASGSTFVINAMGWYRQAPGKERELVADIDYRGGSTNYADSVKGRFTISRDNAKNTVYLQMNSLKPEDTAVYYCNKRYVIRRRGYDYWGQGTQVTVSS”, the “polyreactivity (PSR sort gate)” value is reported as “low polyreactivity”. With “QVQLVESGGGLVQAGGSLRLSCAASGSTFVIYAMGWYRQAPGKERELVAAITISGGRTYYADSVKGRFTISRDKAKNTVYLQMNSLKPEDTAVYYCAATVVSTYPYGYGSSFVRDDYWGQGTQVTVSS” the “polyreactivity (PSR sort gate)” value was “low polyreactivity”. With “QVQLVESGGGLVQAGGSLRLSCAASGSTFVIYDMGWYRQAPGKERELVAAISYSGGSTYYADSVKGRFTISRDNAKNTVYLQMNSLKPEDTAVYYCNAGVLVLLYAYLPSEQEYWGQGTQVTVSS” the “polyreactivity (PSR sort gate)” value was “low polyreactivity”. For “QVQLVESGGGLVQAGGSLRLSCAASGSTFVIYTMGWYRQAPVKERELVAAISWSGGITRYADSVKGRFTISRDNAKNTVYLQMNSLKPEDTAVYYCNASQWPSRFDYWGQGTQVTVSS”, the “polyreactivity (PSR sort gate)” value was “low polyreactivity”. In the case of “QVQLVESGGGLVQAGGSLRLSCAASGSTFVKYAMGWYRQAPGKERELVARISSSGGSTYYADSVKGRFTISRDNAKNTVYLQMNSLKPEDTAVYYCAAPSLIAKYDYWGQGTQVTVSS”, the “polyreactivity (PSR sort gate)” value is reported as “high polyreactivity”. In the case of “QVQLVESGGGLVQAGGSLRLSCAASGSTFVLNAMGWYRQAPGKERELVAAINLDSGNTNYADSVKGRFTISRDNAKYTVYLQMNSLKPEDTAVYYCNTDVKFGGTAYDYWGQGTQVTVSS”, the “polyreactivity (PSR sort gate)” value is reported as “low polyreactivity”. In the case of “QVQLVESGGGLVQAGGSLRLSCAASGSTFVLNAMGWYRQSPGKERQLVAGISYGTGSTYYADSVKGRITISRDNAKNTVYLQMNSLKPEDTAVYFCAADNWAVNAYYWYIYDYWGQGTQVTVSS”, the “polyreactivity (PSR sort gate)” value is reported as “low polyreactivity”. With “QVQLVESGGGLVQAGGSLRLSCAASGSTFVNNAMGWYIQAPGKERELVAAIRSSDGRTYYADSVKGRFTISRDNAKNTVYLQMNSLKPEDTAVYYCATAVGTKYRTRIFEYYYWGQGTQVTVSS” the “polyreactivity (PSR sort gate)” value was “high polyreactivity”. With “QVQLVESGGGLVQAGGSLRLSCAASGSTFVNYAMVWYRQAPGKERELVAAITRGGYTYYADSVKGRFTISRDNAKNTVYLEMNSLKPEDTAFYYCNAAVSYPKYPYVSPGVPSYDYWGQGTQVSVSS” the “polyreactivity (PSR sort gate)” value was “low polyreactivity”. With “QVQLVESGGGLVQAGGSLRLSCAASGSTFVPYAMGWYRPAPGKERELVAGITFSGGSTYYADSVKGRFTISRDNAKNTVYLQMNSLKPEDTAVYYCAAGGWRGHYYWGQGTQVTVSS” the “polyreactivity (PSR sort gate)” value was “high polyreactivity”. With “QVQLVESGGGLVQAGGSLRLSCAASGSTFVPYTMGWYRQAPGKERELVAAISGSGGTDYADSVKGRFTISRDNAKNTVYLQMNSLKPEDTAVYYCATDGLDFWFIYDYWGQGTQVTVSS” the “polyreactivity (PSR sort gate)” value was “low polyreactivity”. With “QVQLVESGGGLVQAGGSLRLSCAASGSTFVPYTMGWYRQAPGKERELVAVITSGGSTNYADSVKGRFTISRDNAKNTVYLQMNSLKPEDTAVYYCAAYGGTHYTYRYDYWGQGTQVTVSS” the “polyreactivity (PSR sort gate)” value was “high polyreactivity”. In the case of “QVQLVESGGGLVQAGGSLRLSCAASGSTFVPYVMGWYRQAPGKERELVAAISKSGTSTYYADSVKGRFTISRDNAKNTDYLQMNSLKPEDTAVYYCAAVARRQVPYDYWGQGTQVTVSS”, the “polyreactivity (PSR sort gate)” value is reported as “high polyreactivity”. In the case of “QVQLVESGGGLVQAGGSLRLSCAASGSTFVQNDMGWYIPAPGKERELVAAISRTGGSTYYADSVKGRFTISRDNAKNTVYLQMNSLKPEDTAVYYCARRYYYQYRYDYWGQGTQVTVSS”, the “polyreactivity (PSR sort gate)” value is reported as “high polyreactivity”. For “QVQLVESGGGLVQAGGSLRLSCAASGSTFVQYAMGWYRQAPGKERELVAAITRSGGSTYYADSVKGRFTISRDNAKNTVYLQMNSLKPEDTAVYYCAARHYRSRDGYWGQGTQVTVSS”, the “polyreactivity (PSR sort gate)” value was “high polyreactivity”. For “QVQLVESGGGLVQAGGSLRLSCAASGSTFVRNAMGWYRQAPGKERELVAAIRWRSGSTYYADSVKGRFTISRDNAKNTVYLQMNSLKPEDTAVYYCAVDYNSFRYGPLGYWGQGTQVTVSS”, the “polyreactivity (PSR sort gate)” value was “high polyreactivity”. With “QVQLVESGGGLVQAGGSLRLSCAASGSTFVRNAMGWYRQAPGKERELVAAISNVGSTYYADSVKGRFTISRDNAKNTVYLQMNSLKPEDTAVYYGTKQLWYHKFNYWGQGTQVTVSS” the “polyreactivity (PSR sort gate)” value was “low polyreactivity”.
